# Measurements reported in patent USRE49583E1, “Inducible expression systems” (priority 2005, dated 2023).
# Positions count from the first letter of the chain named. In names and notes the source's numbering stands. Entries after “also recorded” stand apart in the source; their conditions may differ.
# B1: V9I C68R G138D F86Y A209T: rtTA variant with these amino acid substitutions (protein)
# chain: MSRLDKSKIINSALELLNGVGIEGLTTRKLAQKLGVEQPTLYWHVKNKRALLDALPIEMLDRHHTHFRPLEGESWQDFLRNNAKSYRCALLSHRDGAKVHLGTRPTEKQYETLENQLAFLCQQGFSLENALYALSAVDHFTLGCVLEEQEHQVAKEERETPTTDSMPPLLRQAIELFDRQGAEPAFLFGLELIICGLEKQLKCESGGPTDALDDFDLDMLPADALDDFDLDMLPADALDDFDLDMLPG
# B2: V9I G19M G138D F86Y: rtTA variant with these amino acid substitutions (protein)
# chain: B1 chain with G19M, R68C, T209A
# B3: V9I G19M G138D F86Y A209T: rtTA variant with these amino acid substitutions (protein)
# chain: B1 chain with G19M, R68C
# B4: V9I E37Q G138D F86Y: rtTA variant with these amino acid substitutions (protein)
# chain: B1 chain with E37Q, R68C, T209A
# B5: V9I E37Q G138D F86Y A209T: rtTA variant with these amino acid substitutions (protein)
# chain: B1 chain with E37Q, R68C
# B6: V9I G19M F67S G138D F86Y: rtTA variant with these amino acid substitutions (protein)
# chain: B1 chain with G19M, F67S, R68C, T209A
# B7: V9I G19M F67S G138D F86Y A209T: rtTA variant with these amino acid substitutions (protein)
# chain: B1 chain with G19M, F67S, R68C
# B8: V9I S12G F67S G138D F86Y: rtTA variant with these amino acid substitutions (protein)
# chain: B1 chain with S12G, F67S, R68C, T209A
# B9: V9I S12G F67S G138D F86Y A209T: rtTA variant with these amino acid substitutions (protein)
# chain: B1 chain with S12G, F67S, R68C
# B10: V9I F67S C68R G138D F86Y: rtTA variant with these amino acid substitutions (protein)
# chain: B1 chain with F67S, T209A
# B11: V9I F67S G138D F86Y: rtTA variant with these amino acid substitutions (protein)
# chain: B1 chain with F67S, R68C, T209A
# B12: V9I F67S C68R G138D F86Y A209T: rtTA variant with these amino acid substitutions (protein)
# chain: B1 chain with F67S
# B13: V9I F67S E157K F86Y: rtTA variant with these amino acid substitutions (protein)
# chain: B1 chain with F67S, R68C, D138G, E157K, T209A
# B14: V9I F67S R171K F86Y: rtTA variant with these amino acid substitutions (protein)
# chain: B1 chain with F67S, R68C, D138G, R171K, T209A
# B15: E37Q F67S F86Y: rtTA variant with these amino acid substitutions (protein)
# chain: B1 chain with I9V, E37Q, F67S, R68C, D138G, T209A
# B16: E37Q F67S F86Y A209T: rtTA variant with these amino acid substitutions (protein)
# chain: B1 chain with I9V, E37Q, F67S, R68C, D138G
# B17: V9I C68R G138D F86Y: rtTA variant with these amino acid substitutions (protein)
# chain: B1 chain with T209A
# Test system: chromosomally integrated CMV-7tetO luciferase reporter in HeLa X1/6 cells
# Test: rtTA activity assay, HeLa X1/6 cells with integrated CMV-7tetO luciferase reporter (Example 1, FIG. 2-3, 5, 14, 15)
# Format: cell-based
# Conditions: for rtTA activation by minocycline (Mc): 0-10000 ng/ml Mc; for rtTA activation by tetracycline (Tc): 0-10000 ng/ml Tc; for basal / background activity in the absence of inducer: no dox or other effector
# Description: To test whether this rtTA optimization reflects a specific adaptation to the viral LTR-2ΔtetO promoter, we assayed rtTA activity with a reporter gene construct in which luciferase expression is under the control of a minimal CMV promoter coupled to an array of seven tetO elements. […] Thus, the observed mutations in rtTA are not virus-specific adaptations, but are general improvements of the Tet-on system. We also assayed rtTA activity in HeLa X1/6 cells that contain chromosomally integrated copies of the CMV-7tetO luciferase reporter construct (FIG. 2C). In these cells, the evolved rtTAs show a similar pattern of activity as with episomal reporter gene constructs in C33A cells. Thus, these mutations improve rtTA activity independent of the type of promoter and the episomal or chromosomal status of the target gene.
# The V10 variant needs only 44 ng/ml dox to reach this activity level, which reflects a 23-fold higher dox-sensitivity than the wild-type rtTA.
# rtTA activity assay. Two firefly luciferase reporter constructs with different promoter configurations were used. pLTR-2ΔtetO-luc contains the LTR-2ΔtetO promoter derived from the HIV-rtTA molecular clone (Marzio et al. 2001; Marzio et al. 2002). pCMV-7tetO-luc, previously named pUHC13-3 (Gossen et al. 1992), contains seven tetO elements located upstream of a minimal CMV promoter. The plasmid pRL-CMV (PROMEGA®, Madison, Wis., USA), in which the expression of Renilla luciferase is controlled by the CMV promoter, was used as an internal control to allow correction for differences in transfection efficiency.
# C33A and HeLa X1/6 cells were grown in 2-cm^2 wells to 60% confluency and transfected by the calcium phosphate precipitation method (Das et al. 1999). C33A cells were transfected with 0.4 ng pCMV-rtTA (wild-type or mutant), 20 ng pLTR-2ΔtetO-luc or pCMV-7tetO-luc, 0.5 ng pRL-CMV, and 980 ng pBluescript as carrier DNA. HeLa X1/6 cells were transfected with 8 ng pCMV-rtTA, 2.5 ng pRL-CMV, and 990 ng pBluescript. The amount of the DNA constructs was optimized for each cell type to keep rtTA-mediated transactivation within the linear range and to avoid squelching of transcription factors. Cells were cultured for 48 hours in the presence of different concentrations of dox, Tc or Mc, and lysed in Passive Lysis Buffer (PROMEGA®). Firefly and Renilla luciferase activities were determined with the dual-luciferase reporter assay (PROMEGA®). The activity of the rtTA variants was calculated as the ratio of the firefly and Renilla luciferase activities, and corrected for between-session variation.
# FIG. 2. Novel rtTA variants show increased activity and dox-sensitivity in different Tet systems. The transcriptional activity of rtTA variants was measured in C33A cells transfected with a plasmid carrying the firefly luciferase reporter gene under the control of the viral LTR-2ΔtetO promoter (LTR-2ΔtetO; A) or under the control of a minimal CMV-derived promoter coupled to seven tetO elements (CMV7-tetO; B). Furthermore, rtTA activity was measured in HeLa X1/6 cells (Baron et al. 1997) that contain a chromosomally integrated copy of the CMV-7tetO reporter construct (CMV7tetO-integrated; C, D). Variants V1 to V10 were compared in all three Tet systems (panels A-C) and variants V11 to V18 in the cells with the integrated reporter (panel D). Cells were transfected with the indicated rtTA expression plasmid or pBluescript as a negative control, and a plasmid constitutively expressing Renilla luciferase to correct for differences in transfection efficiency. Cells were cultured in the presence of different dox concentrations (0-1000 ng/ml). The ratio of the firefly and Renilla luciferase activities measured 2 days after transfection reflects the rtTA activity. All values were related to the wild-type (wt) rtTA activity at 1000 ng/ml dox, which was arbitrarily set at 100%. In (C and D), average values of three transfections are shown with error bars indicating the standard deviation.
# FIG. 3. […]
# [1] = listed as C68R V9I G138D F86Y A209T
# [2] = listed as S12G F67S V9I G138D F86Y A209T
Molecule,basal / background activity in the absence of inducer,further results
B1,no or low basal activity,rtTA activation by minocycline (Mc) [1]: particularly sensitive for minocycline; also recorded: very sensitive for minocycline; rtTA activation by tetracycline (Tc) [1]: particularly sensitive for tetracycline; also recorded: very sensitive for tetracycline; basal / background activity in the absence of inducer [1]: low background activity
B2,no or low basal activity,
B3,no or low basal activity,rtTA activation by minocycline (Mc): particularly sensitive for minocycline; rtTA activation by tetracycline (Tc): particularly sensitive for tetracycline
B4,no or low basal activity,
B5,no or low basal activity,rtTA activation by minocycline (Mc): particularly sensitive for minocycline; rtTA activation by tetracycline (Tc): particularly sensitive for tetracycline
B6,no or low basal activity,
B7,no or low basal activity,rtTA activation by minocycline (Mc): particularly sensitive for minocycline; rtTA activation by tetracycline (Tc): particularly sensitive for tetracycline
B8,no or low basal activity,
B9,no or low basal activity,rtTA activation by minocycline (Mc) [2]: particularly sensitive for minocycline; also recorded: very sensitive for minocycline; rtTA activation by tetracycline (Tc) (listed as 512G F67S V9I G138D F86Y A209T): particularly sensitive for tetracycline; rtTA activation by tetracycline (Tc) [2]: very sensitive for tetracycline; basal / background activity in the absence of inducer [2]: low background activity
B10,no or low basal activity,
B11,no or low basal activity,
B12,no or low basal activity,rtTA activation by minocycline (Mc): particularly sensitive for minocycline; rtTA activation by tetracycline (Tc): particularly sensitive for tetracycline
B13,no or low basal activity,
B14,no or low basal activity,
B15,no or low basal activity,
B16,no or low basal activity,rtTA activation by minocycline (Mc) (listed as F67S E37Q F86Y A209T): particularly sensitive for minocycline; also recorded: very sensitive for minocycline; basal / background activity in the absence of inducer (listed as F67S E37Q F86Y A209T): low background activity
B17,no or low basal activity,
